Data from patent US11406618B2, “Polymer-des-ethyl sunitinib conjugates” (Nektar Therapeutics, priority 2010, dated 2022).

Experiment: Buffer hydrolysis in phosphate buffer to monitor the release of des-ethyl sunitinib
Assay type: physicochemical
Conditions: 100 mM phosphate, 37° C.
Method: In a 10 mL round bottom flask was added (Z)—(N-(2-aminoethyl)-9-(hydroxymethyl)-9H-fluorene-2-carboxamide hydrochloride) ethyl(2-(5-((5-fluoro-2-oxoindolin-3-ylidene)methyl)-2,4-dimethyl-1H-pyrrole-3-carboxamido)ethyl)carbamate dihydrochloride (Compound 2a) (4.83 mg, 6.42 μmol). The solids were dissolved in anhydrous tetrahydrofuran (0.4 mL) and 1,4 dioxane (0.2 mL). mPEG-SPA 20K (100.4 mg, 5.02 μmol) was added. Anhydrous acetonitrile (0.2 mL) was added to dissolve the PEG. After the PEG dissolved, triethylamine (5.2 μL, 0.037 mmol) was added. At 1 hour, the reaction solvent was evaporated at reduced pressure to a dry solid. The product was redissolved in anhydrous acetonitrile (0.5 mL) and precipitated by slow addition of anhydrous IPA (8 mL total). The product was washed with anhydrous IPA (50 mL) and diethyl ether. Residual solvent was evaporated at reduced pressure. Yield was 75 mg yellow powder (75% yield). HPLC analysis was on C18 applying an acetonitrile gradient with 0.1% TFA; retention times were desethyl sunitinib (compound 1) 2.5 minutes and product at 10.7 minutes. Buffer hydrolysis was performed to monitor the release of des-ethyl sunitinib (100 mM phosphate, 37° C.): 36 days at pH 7.5, 3.6 days at pH 8.5.
In a 10 mL round bottom flask was added Compound 2b (9.6 mg, 0.013 mmol). The solids were suspended in anhydrous acetonitrile (0.37 mL) and 1,4 dioxane (0.37 mL). mPEG-SPA 20K (181.3 mg, 9.07 μmol) was added. After the PEG dissolved, triethylamine (9.24 μL, 0.066 mmol) was added. At one hour, the product was precipitated by slow addition of anhydrous IPA (10 mL). The solid was washed with anhydrous IPA (25-30 mL) and then washed with diethyl ether. Residual solvent was evaporated at reduced pressure. Yield was ˜120 mg yellow powder. The product was transferred to a 50 mL round bottom flask. More Compound 2b (6.9 mg, 9.18 μmol) was added. Anhydrous acetonitrile (0.25 mL) and anhydrous 1,4 dioxane (0.25 mL) and anhydrous pyridine (2.2 μL, 0.027 mmol) were added. The reagents never fully dissolved, therefore triethylamine (6 μL, 0.043 mmol) was added. The solution was a clear orange color. After 45 minutes, the product was precipitated by slow addition of anhydrous IPA (˜10 mL). The solid was washed with anhydrous IPA (˜25-30 mL) and then washed with diethyl ether. Residual solvent was evaporated at reduced pressure. Yield was ˜68 mg (57%) yellow powder. HPLC analysis was on C18 applying an acetonitrile gradient with 0.1% TFA; retention times were desethyl sunitinib (compound 1) 2.5 min and product at 10.7 min. Buffer hydrolysis was performed to monitor the release of des-ethyl sunitinib (100 mM phosphate, 37° C.): 22 days at pH 7.5, 1.4 days at pH 8.5.
Experiments were carried out to measure drug release from the polymer conjugates. A typical plot of the data showing the decay of the polymer conjugate (FIG. 1) and the build-up of drug with time (FIG. 2) are included.
In a 10 mL round bottom flask was Compound 2c (7.4 mg, 7.69 μmol) was suspended in anhydrous dioxane (0.5 mL) and anhydrous acetonitrile (0.5 mL). mPEG-SPA 20K (100.0 mg, 5.0 μmol) was added. After the PEG dissolved, triethylamine (7.2 μL, 0.052 mmol) was added. At thirty minutes, anhydrous acetonitrile (0.5 mL) and anhydrous methanol (0.3 mL) were added. At two hours total reaction time, the product was precipitated by slow addition of anhydrous IPA containing 0.25% phosphoric acid. The product was washed with anhydrous IPA and then washed with diethyl ether. Residual solvent was evaporated at reduced pressure. Yield: 58 mg (58%) yellow powder. HPLC analysis employed a C18 column using an acetonitrile gradient with 0.1% TFA; retention times were des-ethyl sunitinib 2.5 min and product 10.7 minutes with 41% purity at 320 nm. Buffer hydrolysis was done to monitor the release of desethyl sunitinib (100 mM phosphate, 37° C.): 11 d at pH 7.5, 1.7 d at pH 8.5.

Substance	Buffer hydrolysis, release of desethyl sunitinib at pH 7.5 (pH 7.5)	Buffer hydrolysis, release of desethyl sunitinib at pH 8.5 (pH 8.5)	Buffer hydrolysis, release of des-ethyl sunitinib at pH 7.5 (pH 7.5)	Buffer hydrolysis, release of des-ethyl sunitinib at pH 8.5 (pH 8.5)
(Z)-(9-(hydroxymethyl)-N2-(2-(2-(2-methoxyethoxy)ethoxy)ethyl)-N7-(2-β-(2-(mPEG 20,000))propanamido)ethyl)-9H-fluorene-2,7-dicarboxamide) ethyl(2-(5-((5-fluoro-2-oxoindolin-3-ylidene)methyl)-2,4-dimethyl-1H-pyrrole-3-carboxamido)ethyl)carbamate [Compound 3c]	11 d	1.7 d	–	–
(Z)-(9-(hydroxymethyl)-N-(2-β-(mPEG 20,000)propanamido)ethyl)-9H-fluorene-4-carboxamide) ethyl(2-(5-((5-fluoro-2-oxoindolin-3-ylidene)methyl)-2,4-dimethyl-1H-pyrrole-3-carboxamido)ethyl)carbamate [Compound 3b]	–	–	22 days	1.4 days
(Z)-(9-(hydroxymethyl)-N-(2-β-(mPEG 20,000)propanamido)ethyl)-9H-fluorene-2-carboxamide) ethyl(2-(5-((5-fluoro-2-oxoindolin-3-ylidene)methyl)-2,4-dimethyl-1H-pyrrole-3-carboxamido)ethyl)carbamate [Compound 3a]	–	–	36 days	3.6 days
